From the supplement of paper PMC10065799, “High-throughput profiling of sequence recognition by tyrosine kinases and SH2 domains using bacterial peptide display” (eLife, 2023)

Experiments:
c-Src SH2 = assay: SH2 binding enrichment of the phosphorylated peptide, bacterial display (enrichment ratio); higher = better substrate or ligand; peptides without Tyr show the background
Grb2 SH2 = Grb2 SH2 (UniProt P62993); assay: as above
SHP2-C SH2 = assay: as above
Fyn = Fyn (UniProt P06241); assay: phosphorylation enrichment, bacterial display (enrichment ratio); higher = better substrate or ligand; peptides without Tyr show the background
Fes = Fes (UniProt P07332); assay: as above
EPHB1 = EPHB1 (UniProt P54762); assay: as above
MERTK = MERTK (UniProt Q12866); assay: as above
AncSZ = assay: as above
FGFR3 = FGFR3 (UniProt P22607); assay: as above
c-Src = assay: as above
EPHB2 = EPHB2 (UniProt P29323); assay: as above
Jak2 = Jak2 (UniProt O60674); assay: as above
Fer (mouse) = assay: as above
Hck = Hck (UniProt P08631); assay: as above
FGFR1 = FGFR1 (UniProt P11362); assay: as above
c-Abl (mouse) = assay: as above
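For SH2 binding enrichment of the phosphorylated peptide, bacterial display in this document: peptide library displayed on the E. coli surface as eCPX fusions, selected cells deep-sequenced, score is each peptide's frequency after selection divided by its frequency in the input.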
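For phosphorylation enrichment, bacterial display in this document: 11-residue human phosphosite peptides and single-mutation variants displayed on the E. coli surface, counted by deep sequencing, each peptide's frequency after selection divided by its frequency in the unselected input library; frequency after pTyr selection over input frequency; kinase dosed for 20-30% of maximal phosphorylation in three min.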

Hck, sequence (P08631 whole entry, looked up): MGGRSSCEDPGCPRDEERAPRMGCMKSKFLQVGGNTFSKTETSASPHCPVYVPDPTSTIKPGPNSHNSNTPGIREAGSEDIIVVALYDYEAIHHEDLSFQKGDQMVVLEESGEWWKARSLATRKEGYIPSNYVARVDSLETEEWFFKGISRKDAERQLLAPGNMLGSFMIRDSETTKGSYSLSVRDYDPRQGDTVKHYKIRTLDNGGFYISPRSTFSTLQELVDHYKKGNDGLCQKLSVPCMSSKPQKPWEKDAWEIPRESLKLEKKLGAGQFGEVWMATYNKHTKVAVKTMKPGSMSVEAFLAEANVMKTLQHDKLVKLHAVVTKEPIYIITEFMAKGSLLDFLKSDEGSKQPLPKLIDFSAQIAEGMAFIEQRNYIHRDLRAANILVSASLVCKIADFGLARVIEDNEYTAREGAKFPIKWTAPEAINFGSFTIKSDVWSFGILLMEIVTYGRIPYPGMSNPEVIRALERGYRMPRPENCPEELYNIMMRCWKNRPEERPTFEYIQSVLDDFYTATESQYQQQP
MERTK, sequence (Q12866 whole entry, looked up): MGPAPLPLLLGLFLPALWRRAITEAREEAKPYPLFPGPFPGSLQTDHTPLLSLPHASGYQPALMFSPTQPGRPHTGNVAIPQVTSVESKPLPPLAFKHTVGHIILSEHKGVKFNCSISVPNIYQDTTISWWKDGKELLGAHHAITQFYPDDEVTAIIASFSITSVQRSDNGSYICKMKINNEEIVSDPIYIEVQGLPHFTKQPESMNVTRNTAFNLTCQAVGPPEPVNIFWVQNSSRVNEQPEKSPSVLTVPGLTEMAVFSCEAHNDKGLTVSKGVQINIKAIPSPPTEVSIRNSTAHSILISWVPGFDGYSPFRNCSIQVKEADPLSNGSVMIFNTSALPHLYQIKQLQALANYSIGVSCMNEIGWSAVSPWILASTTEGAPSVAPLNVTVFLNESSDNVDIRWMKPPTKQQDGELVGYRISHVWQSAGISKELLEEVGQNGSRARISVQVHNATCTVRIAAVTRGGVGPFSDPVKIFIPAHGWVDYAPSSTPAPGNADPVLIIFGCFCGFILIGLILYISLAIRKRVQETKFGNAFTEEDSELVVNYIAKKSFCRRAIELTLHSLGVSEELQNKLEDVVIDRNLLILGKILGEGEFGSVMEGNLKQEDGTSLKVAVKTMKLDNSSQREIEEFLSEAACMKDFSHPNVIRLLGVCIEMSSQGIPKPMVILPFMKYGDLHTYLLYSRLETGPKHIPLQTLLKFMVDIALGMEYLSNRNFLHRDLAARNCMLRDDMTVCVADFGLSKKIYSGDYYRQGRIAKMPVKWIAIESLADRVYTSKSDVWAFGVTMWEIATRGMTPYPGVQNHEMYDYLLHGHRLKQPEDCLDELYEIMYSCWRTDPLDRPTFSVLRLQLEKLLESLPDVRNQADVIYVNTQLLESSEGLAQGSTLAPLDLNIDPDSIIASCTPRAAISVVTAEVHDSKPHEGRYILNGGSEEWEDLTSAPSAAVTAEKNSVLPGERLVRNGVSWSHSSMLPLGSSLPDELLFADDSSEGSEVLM
Fes, sequence (P07332 whole entry, looked up): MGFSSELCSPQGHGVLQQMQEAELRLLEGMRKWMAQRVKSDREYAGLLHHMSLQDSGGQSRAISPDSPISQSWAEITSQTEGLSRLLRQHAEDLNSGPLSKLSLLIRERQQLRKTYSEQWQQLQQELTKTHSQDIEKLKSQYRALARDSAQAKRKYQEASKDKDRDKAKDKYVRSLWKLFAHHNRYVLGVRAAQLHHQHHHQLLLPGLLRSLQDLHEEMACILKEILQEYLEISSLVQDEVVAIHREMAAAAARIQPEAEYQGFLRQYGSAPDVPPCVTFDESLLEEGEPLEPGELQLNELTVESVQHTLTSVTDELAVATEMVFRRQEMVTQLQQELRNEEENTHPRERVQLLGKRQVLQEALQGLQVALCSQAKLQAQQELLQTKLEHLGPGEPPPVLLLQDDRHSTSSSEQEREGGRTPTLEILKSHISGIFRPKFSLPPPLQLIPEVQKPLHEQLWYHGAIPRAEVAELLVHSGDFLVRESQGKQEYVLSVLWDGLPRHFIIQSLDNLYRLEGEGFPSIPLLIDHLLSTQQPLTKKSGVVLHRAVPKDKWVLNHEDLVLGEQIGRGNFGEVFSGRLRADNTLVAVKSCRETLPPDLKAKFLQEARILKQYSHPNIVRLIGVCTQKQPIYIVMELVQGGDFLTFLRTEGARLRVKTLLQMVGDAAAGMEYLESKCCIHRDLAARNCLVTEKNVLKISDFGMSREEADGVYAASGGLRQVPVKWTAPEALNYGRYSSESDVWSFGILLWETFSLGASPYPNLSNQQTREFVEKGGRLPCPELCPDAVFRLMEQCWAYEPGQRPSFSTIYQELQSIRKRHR
Fyn, sequence (P06241 whole entry, looked up): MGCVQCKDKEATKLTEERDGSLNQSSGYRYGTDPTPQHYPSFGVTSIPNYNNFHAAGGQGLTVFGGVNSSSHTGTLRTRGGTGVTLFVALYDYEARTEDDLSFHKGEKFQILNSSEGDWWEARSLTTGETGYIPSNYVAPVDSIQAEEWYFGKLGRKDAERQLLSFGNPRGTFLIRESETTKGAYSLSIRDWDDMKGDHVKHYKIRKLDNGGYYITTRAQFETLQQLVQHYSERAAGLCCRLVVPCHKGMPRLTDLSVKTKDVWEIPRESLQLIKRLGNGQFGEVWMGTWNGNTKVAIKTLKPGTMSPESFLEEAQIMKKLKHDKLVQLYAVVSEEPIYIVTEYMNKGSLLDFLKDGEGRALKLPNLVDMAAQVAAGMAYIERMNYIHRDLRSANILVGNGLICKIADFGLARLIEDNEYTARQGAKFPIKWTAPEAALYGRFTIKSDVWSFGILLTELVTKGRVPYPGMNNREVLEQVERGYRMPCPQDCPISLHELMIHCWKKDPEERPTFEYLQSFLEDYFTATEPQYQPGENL
FGFR1, sequence (P11362 whole entry, looked up): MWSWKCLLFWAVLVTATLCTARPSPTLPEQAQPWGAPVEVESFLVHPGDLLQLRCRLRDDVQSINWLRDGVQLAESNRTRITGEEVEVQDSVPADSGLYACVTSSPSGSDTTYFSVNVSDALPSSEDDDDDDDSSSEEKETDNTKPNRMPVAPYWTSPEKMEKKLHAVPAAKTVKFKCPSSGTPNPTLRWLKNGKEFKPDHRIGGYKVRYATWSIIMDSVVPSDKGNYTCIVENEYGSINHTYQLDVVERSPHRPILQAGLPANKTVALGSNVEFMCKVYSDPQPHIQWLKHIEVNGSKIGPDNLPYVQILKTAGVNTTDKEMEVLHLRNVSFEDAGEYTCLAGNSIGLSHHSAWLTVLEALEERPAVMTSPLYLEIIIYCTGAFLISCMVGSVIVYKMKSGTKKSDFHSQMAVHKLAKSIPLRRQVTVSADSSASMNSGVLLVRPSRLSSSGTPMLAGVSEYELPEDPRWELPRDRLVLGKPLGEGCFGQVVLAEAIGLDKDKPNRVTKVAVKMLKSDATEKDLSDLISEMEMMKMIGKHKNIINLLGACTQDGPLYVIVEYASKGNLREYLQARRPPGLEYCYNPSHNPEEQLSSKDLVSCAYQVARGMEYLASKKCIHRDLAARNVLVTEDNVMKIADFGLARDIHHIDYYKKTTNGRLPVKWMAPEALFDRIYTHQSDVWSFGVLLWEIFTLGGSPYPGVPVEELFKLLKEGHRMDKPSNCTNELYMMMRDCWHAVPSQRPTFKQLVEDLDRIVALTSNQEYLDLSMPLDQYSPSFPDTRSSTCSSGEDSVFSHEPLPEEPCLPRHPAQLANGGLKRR
EPHB1, sequence (P54762 whole entry, looked up): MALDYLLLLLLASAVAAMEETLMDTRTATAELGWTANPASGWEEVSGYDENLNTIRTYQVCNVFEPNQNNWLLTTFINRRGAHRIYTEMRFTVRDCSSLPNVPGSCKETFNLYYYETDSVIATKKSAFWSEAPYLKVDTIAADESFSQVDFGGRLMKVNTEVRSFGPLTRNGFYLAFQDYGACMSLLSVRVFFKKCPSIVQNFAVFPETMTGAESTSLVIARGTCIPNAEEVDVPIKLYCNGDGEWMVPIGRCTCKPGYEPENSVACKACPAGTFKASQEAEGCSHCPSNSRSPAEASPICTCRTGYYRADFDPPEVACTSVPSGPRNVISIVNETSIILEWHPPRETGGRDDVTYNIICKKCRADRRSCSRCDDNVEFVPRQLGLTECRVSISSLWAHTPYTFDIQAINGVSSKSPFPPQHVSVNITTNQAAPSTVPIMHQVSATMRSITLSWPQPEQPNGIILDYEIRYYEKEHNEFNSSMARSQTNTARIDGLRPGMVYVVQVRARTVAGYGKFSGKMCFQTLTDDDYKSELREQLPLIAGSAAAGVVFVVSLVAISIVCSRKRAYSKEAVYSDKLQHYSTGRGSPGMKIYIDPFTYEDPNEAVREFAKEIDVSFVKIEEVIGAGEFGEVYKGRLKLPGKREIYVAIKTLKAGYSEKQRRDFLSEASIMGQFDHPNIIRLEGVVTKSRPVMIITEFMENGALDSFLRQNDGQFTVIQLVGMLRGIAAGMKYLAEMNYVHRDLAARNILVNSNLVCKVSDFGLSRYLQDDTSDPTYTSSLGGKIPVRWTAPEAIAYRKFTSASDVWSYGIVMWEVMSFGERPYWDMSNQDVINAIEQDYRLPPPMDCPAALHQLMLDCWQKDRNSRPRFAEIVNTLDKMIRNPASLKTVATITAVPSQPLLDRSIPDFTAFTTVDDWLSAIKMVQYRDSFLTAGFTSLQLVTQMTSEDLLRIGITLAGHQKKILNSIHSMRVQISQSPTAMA
Grb2 SH2, sequence (P62993 whole entry, looked up): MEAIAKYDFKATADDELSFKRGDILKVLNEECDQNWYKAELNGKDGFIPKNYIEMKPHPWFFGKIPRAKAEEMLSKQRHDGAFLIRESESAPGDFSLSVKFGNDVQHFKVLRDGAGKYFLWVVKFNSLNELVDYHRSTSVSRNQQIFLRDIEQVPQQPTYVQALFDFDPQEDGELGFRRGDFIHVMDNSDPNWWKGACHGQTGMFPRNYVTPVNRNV

| Sequence | SH2 binding enrichment (c-Src SH2) | SH2 binding enrichment (Grb2 SH2) | SH2 binding enrichment (SHP2-C SH2) | phosphorylation enrichment (Fyn) | phosphorylation enrichment (Fes) | phosphorylation enrichment (EPHB1) | phosphorylation enrichment (MERTK) | phosphorylation enrichment (AncSZ) | phosphorylation enrichment (FGFR3) | phosphorylation enrichment (c-Src) | phosphorylation enrichment (EPHB2) | phosphorylation enrichment (Jak2) | phosphorylation enrichment (Fer (mouse)) | phosphorylation enrichment (Hck) | phosphorylation enrichment (FGFR1) | phosphorylation enrichment (c-Abl (mouse)) |
| --- | --- | --- | --- | --- | --- | --- | --- | --- | --- | --- | --- | --- | --- | --- | --- | --- |
| VVQGIYGYHHH [UFSP2_Y285_Y290H] | 0.652 | 1.11 | 1.23 | 11.2 | 0.758 | 0.857 | 10.3 | 0.67 | 0.488 | 9.1 | 2.92 | 0.555 | 13.8 | 10.7 | 0.541 | 5.2 |
| VVTFSYKPAGN [RBL2_Y544_P547A] | 0.685 | 0.999 | 0.984 | 0.395 | 0.83 | 0.418 | 0.367 | 0.754 | 0.705 | 0.397 | 0.424 | 0.643 | 0.378 | 0.378 | 0.399 | 0.605 |
| VYAANYYKLLG [ROR2_Y645_D644N] | 0.506 | 0.699 | 0.555 | 1.28 | 1.11 | 3.1 | 5.56 | 0.779 | 5.33 | 1.18 | 2.04 | 3.19 | 0.469 | 1.76 | 7.46 | 1.23 |
| VYYDLYGGEKF [PTPN11_Y66_D61V] | 2.26 | 1.34 | 1.06 | 5.88 | 1.13 | 4.34 | 8.55 | 2.05 | 12.8 | 5.53 | 7.34 | 2.2 | 2.99 | 6.07 | 15 | 0.918 |
| WAMLAYNRSKL [WWOX_Y293] | 0.565 | 1.29 | 1.09 | 0.347 | 1.04 | 0.453 | 0.37 | 1.25 | 0.611 | 0.266 | 0.417 | 1.02 | 0.525 | 0.435 | 0.431 | 0.541 |
| WCKPPYFSCAV [MMS22L_Y28] | 1.34 | 1.29 | 1.18 | 0.459 | 0.908 | 0.506 | 0.418 | 1.06 | 0.656 | 0.459 | 0.562 | 0.845 | 0.474 | 0.432 | 0.512 | 0.656 |
| WEPFGYAVTRC [PTPRT_Y412] | 0.685 | 0.683 | 0.589 | 0.402 | 0.999 | 0.591 | 0.345 | 0.947 | 0.707 | 0.382 | 0.567 | 0.915 | 0.458 | 0.479 | 0.547 | 0.673 |
| WFISFYPQVIM [CTNS_Y143_S139F] | 0.444 | 0.684 | 0.618 | 0.413 | 1.53 | 0.541 | 0.315 | 1.22 | 0.838 | 0.359 | 0.637 | 1.13 | 0.451 | 0.446 | 0.485 | 0.758 |
| WFKKFYDANFD [MAPRE2_Y158_YF] | 0.512 | 1.06 | 0.639 | 0.37 | 1.28 | 0.501 | 0.399 | 0.998 | 0.6 | 0.368 | 0.374 | 0.85 | 0.373 | 0.421 | 0.378 | 0.537 |
| WGTPEYDSVVA [MAP1A_Y1883_A1881P] | 0.864 | 0.829 | 0.612 | 0.566 | 1.15 | 0.495 | 0.359 | 1.42 | 0.593 | 0.59 | 0.493 | 0.895 | 2.73 | 0.76 | 0.46 | 0.723 |
| WHHIFYNELRV [ACTG1_Y91_T89I] | 0.512 | 0.701 | 0.638 | 0.388 | 1.33 | 0.663 | 0.444 | 1.14 | 0.911 | 0.407 | 0.725 | 1.13 | 0.536 | 0.569 | 0.527 | 0.805 |
| WHYTFYNELRV [ACTC1_Y93_H90Y] | 0.572 | 0.992 | 0.779 | 0.461 | 1.42 | 1.31 | 0.869 | 1.39 | 1.03 | 0.619 | 0.678 | 1.27 | 0.651 | 0.67 | 0.686 | 0.979 |
| WRPFGYPCRRR [BCS1L_Y181_R183C] | 0.435 | 0.746 | 0.488 | 0.442 | 0.643 | 0.422 | 0.509 | 0.622 | 0.462 | 0.517 | 0.435 | 0.394 | 0.458 | 0.457 | 0.496 | 0.544 |
| WRVISYHVVVW [ATP13A2_Y50_G49S] | 0.619 | 1.08 | 0.994 | 0.453 | 1.47 | 0.582 | 0.434 | 1.2 | 0.826 | 0.63 | 0.61 | 1.26 | 0.547 | 0.544 | 0.554 | 1.03 |
| WVFNHYRCIIW [BRCA2_Y2624_W2626C_YF] | 0.588 | 0.82 | 0.755 | 0.482 | 1.67 | 0.885 | 0.538 | 1.28 | 0.956 | 0.497 | 0.644 | 1.41 | 0.589 | 0.574 | 0.498 | 1.04 |
| YADGVYLALEE [DUOX2_Y70_Q71L] | 0.869 | 0.83 | 0.679 | 2.28 | 1.31 | 1.82 | 1.13 | 1.66 | 1.18 | 2.97 | 1.28 | 1.39 | 0.531 | 1.59 | 1.12 | 0.899 |
| YEEDSYVERSQ [RET_Y905_K907E] | 1.48 | 0.726 | 0.75 | 0.519 | 1.31 | 0.667 | 0.504 | 1.27 | 0.961 | 0.41 | 0.722 | 1.06 | 0.572 | 0.498 | 0.558 | 0.668 |
| YENGEYIIRQG [PRKG1_Y247] | 9.41 | 37.5 | 1.22 | 0.453 | 1.04 | 0.552 | 0.386 | 1.11 | 0.611 | 0.542 | 0.555 | 0.913 | 0.418 | 0.589 | 0.432 | 0.66 |
| YGAHNYHPLPV [OAT_Y55] | 1.01 | 0.866 | 0.827 | 0.599 | 0.728 | 1.24 | 2.37 | 0.61 | 5.68 | 0.632 | 1.53 | 0.642 | 1.06 | 1.28 | 9.73 | 0.675 |
| YGPPQYNMQYS [ERBB2IP_Y977_I979M] | 0.434 | 0.849 | 0.661 | 0.547 | 0.577 | 0.472 | 0.478 | 0.794 | 0.448 | 0.499 | 0.426 | 0.496 | 0.499 | 0.746 | 0.442 | 0.481 |
| YIRRDYEACKA [BBS4_Y48_K46R] | 0.514 | 0.48 | 0.917 | 0.572 | 0.807 | 0.897 | 0.435 | 0.765 | 0.578 | 0.706 | 0.685 | 0.75 | 0.426 | 0.509 | 0.633 | 0.64 |
| YLQEIHNSNNQ [FGG_Y140_Y140H] | 0.578 | 0.802 | 0.871 | 0.431 | 0.63 | 0.427 | 0.484 | 0.618 | 0.63 | 0.414 | 0.431 | 0.563 | 0.349 | 0.432 | 0.404 | 0.445 |
| YPQARYHWLVL [APTX_Y214_K211Q] | 0.98 | 1.27 | 1.43 | 0.449 | 1.14 | 0.72 | 1.05 | 0.937 | 1.48 | 0.411 | 0.586 | 0.98 | 0.612 | 0.531 | 1.96 | 0.744 |
| YQLPYYNTVPS [BMPR1A_Y458_M460T] | 8.81 | 9.88 | 1.1 | 0.92 | 0.684 | 0.642 | 5.81 | 2 | 3.69 | 3.46 | 0.799 | 4.98 | 2.1 | 1.46 | 5.46 | 2.34 |
| YRGYSYDDIPD [TMEM230_Y112] | 13.6 | 1.15 | 0.893 | 0.442 | 0.964 | 0.483 | 0.393 | 0.973 | 0.662 | 0.463 | 0.485 | 0.973 | 0.439 | 0.51 | 0.531 | 0.762 |
| YSSLGYPPPEG [ZSWIM4_Y87] | 3.02 | 1.04 | 16.1 | 2.36 | 0.793 | 0.511 | 7.49 | 0.741 | 0.821 | 1.22 | 0.508 | 0.568 | 0.67 | 1.66 | 1.06 | 0.66 |
